# Tested on: MS2 coat protein
# Test: apparent KD of MS2 coat protein; designed switch direction (-1 OFF switch, 1 ON switch): 1; higher = weaker reporter binding
# In short: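 On Illumina chips, designed RNA switches with common flanks were made by stalled E. coli RNA polymerase. Titrations with SNAP-549-labelled MS2 coat protein, doubling from 0.7 or 1.5 nM to 3 µM, were done with no input, with 200 uM small-molecule ligand, or with an oligonucleotide input. Apparent KD is the median per design over clusters, from curve fits of normalised cluster fluorescence.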
# [1] = input ligand: microRNA oligo, concentration not stated
# [2] = Eterna round: R95, input ligand: FMN 200 uM
# [3] = Eterna round: R95, input ligand: microRNA oligo, concentration not stated
# [4] = Eterna round: R95, input ligand: none
Sequence,apparent KD of MS2 coat protein [1] [nM],apparent KD of MS2 coat protein (input ligand: FMN 200 uM) [nM],apparent KD of MS2 coat protein (input ligand: none) [nM],apparent KD of MS2 coat protein [2] [nM],apparent KD of MS2 coat protein [3] [nM],apparent KD of MS2 coat protein [4] [nM]
"UGUUGUAUUACAGGAUAUCUAGUGUUUUUAUUUAGAGAAGGGUAUUCACAUGAGGAUCACCCAUGUAUAUACGAGGAAGUUGUG [JMF's solution 34] (Eterna round: R96, puzzle: Same State NG 1)",43,–,–,–,–,–
"AGCCGAGACUGAGGAUAUUUAAAUCUACAUGAGGAUCACCCAUGUAACAACACGUGGUAGUGAUUGAAGAAGGCGGCUCGGCGC [Omei SS(NG)2 Cv2] (Eterna round: R96, puzzle: Same State NG 2)",406,177,404,–,–,–
"UUAACAUGAGGAUCACCCAUGUAUAGGGAGUUUGCAAUUUGACAGGAUAUUGAAGAUUUAUAUAGCAAGAAGGGUCGUUAGUCU [JR_SSNG3_Sub005] (Eterna round: R96, puzzle: Same State NG 3)",44.9,38,53.6,–,–,–
"AUUUUAAAUGCAGGAUAUGAUUAACAUGAGGAUCACCCAUGUGGUGUUGUGAGUAAGGAGAGUGAUCAGAAGGGCAUUUUUUUU [JMF's solution 95] (Eterna round: R96, puzzle: Same State NG 2)",546,748,714,–,–,–
"GCUAGGAUAUGACGAGGAUCACCCGUUAGAAGGAGCUUCGGCUAGGAUAUGACGAGGAUCACCCGUUAGAAGGAGCUGUACUCU [pwkr ssNG3 DX 2xF5 +2xFMN.9] (Eterna round: R96, puzzle: Same State NG 3)",76.7,144,92.3,–,–,–
GUUAAACAUGAGGAUCACCCAUGUAAUAAUAUGGGAGGAUAUGCGAAAUUAAUUAAUUAAGCAGAAGGCCUAAUUG [Mat - Same State 1 - D98] (puzzle: Same State 1),–,–,–,38.3,148,217
"GCGCAGCUGCGCAAUAUUACAUGAGGAUCACCCAUGUUGUCACAGGAUAUGCUGGACAGCGUCGAGCAGAAGGGUGACCAAACA [Zasovexe] (Eterna round: R96, puzzle: Same State NG 3)",97.2,191,300,–,–,–
"GCUAGAAUUAAUGCCUACAUGAGGAUCACCCAUGUAUGUAGGCAGGAUAUCGUUUGCAAAGCAAACGAGAAGGGCCUUACUAGC [Mat - Same State NG 3 - JL Mod - D28] (Eterna round: R96, puzzle: Same State NG 3)",46.1,21.9,63.7,–,–,–
AGUCCUGCCUGAGCAGGACAAAAGCAUGUACAUGAGGAUCACCCAUGUCAUGUACAAGCUUUUUGCUCGUCUUAAUA [Mat - hsa-mir-208a - Mod of JL - D41] (puzzle: Sensor for hsa-mir-208a),–,–,–,556,15.4,854
"GCGGUACCUAACAUGAGGAUCACCCAUGUUCCGGAAACGGCACAGGAUAUCUGUCCGAAAAGGUCAGAGAAGGGUGAAAUCCGC [Fiskers NG3ss - 93] (Eterna round: R96, puzzle: Same State NG 3)",51.6,361,93.3,–,–,–
GUAGGACAUGAGGAUCACCCAUGUGGGAGGGAACGAGGAUAUGUGAUUAGCGAGGAGAGGACAGAAGGCGUGGUAG [JR_SS1_Sub024] (puzzle: Same State 1),–,–,–,55.2,35.4,50.8
"GAGUGGCAGUUAGGAUAUAUAGUGAUAAUGACAAUAGAAGGAACAGACAUGAGGAUCACCCAUGUAGGACUAAUCCAGAGAGAG [Parity 36 - Jieux - Same State NG 1] (Eterna round: R96, puzzle: Same State NG 1)",22.5,32.1,30.2,–,–,–
"GAGUAGUUGAAAGGAUAUUGAUUGUUAUAGGAUCAAGAAGGUUCUAACAUGAGGAUCACCCAUGUAGGACUAUUCCUGUGUAUC [Parity 83 - Jieux - Same State NG 1] (Eterna round: R96, puzzle: Same State NG 1)",8.78,11,12.5,–,–,–
"GCGAGGAUAUGCAGAGGAUCACCCUGUAGAAGGCGCAAAAGCGAGGAUAUGCAGAGGAUCACCCUGUAGAAGGCGCACUACUCU [pwkr ssNG3 DX 2xF5 +2xFMN.4] (Eterna round: R96, puzzle: Same State NG 3)",161,153,221,–,–,–
GAGAGAGGAAGCGAGGAUAUCGUGUGGAGUACAUGAGGAUCACCCAUGUUGUAGGUAGAGGUAGGCGAGAAGGCGCAGGAGAGGU [JR_SS2_Sub097] (puzzle: Same State 2),–,–,–,34,41.5,58.1
"ACAUGAGGAGCAGGAUAUCGCAUGAGGAUCACCCGAGAAGGGCUCACACAUGAGGAUCACCCAUGUAUCACCCAUGUAUGUUGA [twils 1] (Eterna round: R96, puzzle: Same State NG 1)",105,484,498,–,–,–
"AGAACAUGACGAGGAUAUGGAACAUGAGGAUCACCCAUGUAUGUUCCAUAACGCGAAUAAAGAAUCCAGAAGGCGUCGUGAAGA [Mat - Same State NG 2 - JL mod - D32] (Eterna round: R96, puzzle: Same State NG 2)",116,34.5,147,–,–,–
GAAGGAUGAGCGUAGGAUAUAGGAGGAGUGACAUGAGGAUCACCCAUGUGGUAGGAGGGAGGGUACUAGAAGGACGAGGAAGAGG [JR_SS2_Sub069] (puzzle: Same State 2),–,–,–,216,106,161
"AGUAUACAUGAGGAUCACCCAUGUCUGUAACGGACAGGAUAUGCGUUGCAUCACUGUAAUGCAGAAGGGUCCUGUA [Same State 1 - Mod of JMF's solution 1 v.2] (Eterna round: R96, puzzle: Same State 1)",148,50.5,202,–,–,–
AGUCCAGCCUGAGCUGGACAAAAGCAUGUACAUGAGGAUCACCCAUGUCAUGUACAGGCUUUUUGCUCGUCUUAAAA [Zipper 46 - 8] (puzzle: Sensor for hsa-mir-208a),–,–,–,213,16.1,300
"GGAAAGAGGUUAGGAUAUGCAUGUUUGGGACAUGAGGAUCACCCAUGUAAUAGAAGAAAUCUACAGUAGAAGGGACAAGGAAGG [AK SSNG2-V2-6.1] (Eterna round: R96, puzzle: Same State NG 2)",72.9,152,170,–,–,–
"UUGAAGAAUUAAGGAUAUCGAGUCGUCUAAUUAAACAUGAGGAUCACCCAUGUGGGUUGUGGUAUCGAGAAGGUAAAUUACUAA [JR_SSNG2_Sub099] (Eterna round: R96, puzzle: Same State NG 2)",65.3,74.4,95.1,–,–,–

# — the supplement of paper PMC9170038
